# Reference: patent publication EP4778588A2, “ENZYMATICALLY CLEAVABLE LINKER AND LIGAND-ERIBULIN CONJUGATE CONTAINING SAME” (priority 2022, dated 2024)
# Tested on: KATO III cell line (human gastric cancer cells)
# Assay: Cell viability test (same method as for Calu-6) in KATO III cells
# Type: cell-based
# Conditions: average DAR of 2 to 3, read-out: EC/IC50 values for cell viability
# Protocol: Human Calu-6 cells (manufacturer: Procell, product code: CL-327, human lung cancer cells) were resuscitated and seeded into a 96-well culture plate. The culture medium used was DMEM/F12 (manufacturer: Hyclone, product code: SH30023.01), supplemented with 10% FBS (manufacturer: Gibco, product code: 10099141). Each well contained 2,500 cells in 150 µl of medium. The plate was incubated at 37°C in a 5% CO2 incubator. Approximately 20 hours later, 50 µl of medium containing different antibody-drug conjugates were added to each well, setting the final drug concentrations at 0 to 100 nM across 12 dilution gradients (initial concentration: 100 nM; subsequent 5-fold serial dilutions across 10 gradients; last gradient containing no drug, and each sample was tested in duplicate wells). […] After a 2-minute reaction, fluorescence intensity was measured using a Tecan Spark instrument, following the reagent kit's recommended protocol. […] EC/IC50 values were calculated using four-parameter fitting.
# Further, following the above examples, antibody-drug conjugates (ADCs) of Trastuzumab and Bemarituzumab conjugated with the linker-toxin MC-VAGGFG-PAB-Eribulin were prepared for validation. […] Activity was measured using the SK-BR-3 cell line (human breast cancer cells) and KATO III cell line (human gastric cancer cells).
molecule,measurement,value
"Bemarituzumab MC-VAGGFG-PAB-Eribulin: Bemarituzumab conjugated with the linker-toxin MC-VAGGFG-PAB-Eribulin (conjugate, chains of the INN, looked up, MC-VAGGFG-PAB-Eribulin) VH: QVQLVQSGAEVKKPGSSVKVSCKASGYIFTTYNVHWVRQAPGQGLEWIGSIYPDNGDTSYNQNFKGRATITADKSTSTAYMELSSLRSEDTAVYYCARGDFAYWGQGTLVTVSS VL: DIQMTQSPSSLSASVGDRVTITCKASQGVSNDVAWYQQKPGKAPKLLIYSASYRYTGVPSRFSGSGSGTDFTFTISSLQPEDIATYYCQQHSTTPYTFGQGTKLEIK",IC50,0.097 nM
